The results in this text go back to US20140087995A1 (published 2014).

Numbered stars: 1 amine (or outer) side, 2 acyl side, 3 side chain; on linkers, the order of the positions; unused ones are H or OH. Bridge positions count the residues as written; N and C are the ends. Side chains are listed from the residue outwards. Ends that are not written are not given here. * marks the point of attachment. C20 diacid = O=C(O)CCCCCCCCCCCCCCCCCCC(=O)*; γGlu = O=C(O)[C@H](CCC(=O)[*:2])N[*:1]; AEEA = NCCOCCOCC(=O)O

Experiment [1] deals with T1, rat amylin receptor (rat calcitonin receptor + rat RAMP 3) (rat, UniProt P32214 25-516; Q9JJ73 23-147).
T1 construct: whole, on cells; Membranes prepared from transiently transfected BHK tk'ts 13 cells; also called rAmylin-R; rat amylin 3(a) receptor
T1 sequence (looked up) 1: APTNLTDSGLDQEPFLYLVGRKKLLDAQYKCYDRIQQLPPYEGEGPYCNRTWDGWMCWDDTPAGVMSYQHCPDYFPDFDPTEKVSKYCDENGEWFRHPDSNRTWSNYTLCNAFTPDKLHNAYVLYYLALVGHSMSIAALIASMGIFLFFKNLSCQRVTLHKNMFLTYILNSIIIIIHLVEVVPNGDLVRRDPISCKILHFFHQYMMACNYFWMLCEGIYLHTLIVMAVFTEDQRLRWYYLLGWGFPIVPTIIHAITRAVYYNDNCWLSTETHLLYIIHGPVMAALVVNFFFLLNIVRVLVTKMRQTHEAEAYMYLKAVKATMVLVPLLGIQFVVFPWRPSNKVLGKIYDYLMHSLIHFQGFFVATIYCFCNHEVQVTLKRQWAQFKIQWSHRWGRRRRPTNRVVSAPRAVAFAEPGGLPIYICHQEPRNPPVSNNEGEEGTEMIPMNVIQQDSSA
T1 sequence (looked up) 2: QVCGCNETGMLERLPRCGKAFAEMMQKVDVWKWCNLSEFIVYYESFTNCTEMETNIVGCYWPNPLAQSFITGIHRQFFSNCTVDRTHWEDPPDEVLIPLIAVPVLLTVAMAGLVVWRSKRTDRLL
The experiment is described as follows: SPA competition vs 125I-rat amylin, membranes (Assay VI).

For experiment [2], the target named is T2, rat calcitonin receptor (rat, UniProt P32214 25-516).
T2 construct: whole, on cells; Membranes prepared from transiently transfected BHK tk'ts 13 cells; also called rCTR; rat calcitonin (a) receptor
T2 sequence (looked up): T1 sequence (looked up) 1
Briefly: SPA competition vs 125I-calcitonin, membranes (Assay VIII).

For experiment [3], the target named is T2, rat calcitonin receptor. Briefly: ratio of IC50 on rat calcitonin receptor to IC50 on rat amylin receptor.
Experiment [4] deals with T3, human calcitonin receptor (human, UniProt P30988 25-474).
T3 construct: whole, on cells; Membranes from stably transfected BHK cells; also called hCTR; hCT
T3 sequence (looked up): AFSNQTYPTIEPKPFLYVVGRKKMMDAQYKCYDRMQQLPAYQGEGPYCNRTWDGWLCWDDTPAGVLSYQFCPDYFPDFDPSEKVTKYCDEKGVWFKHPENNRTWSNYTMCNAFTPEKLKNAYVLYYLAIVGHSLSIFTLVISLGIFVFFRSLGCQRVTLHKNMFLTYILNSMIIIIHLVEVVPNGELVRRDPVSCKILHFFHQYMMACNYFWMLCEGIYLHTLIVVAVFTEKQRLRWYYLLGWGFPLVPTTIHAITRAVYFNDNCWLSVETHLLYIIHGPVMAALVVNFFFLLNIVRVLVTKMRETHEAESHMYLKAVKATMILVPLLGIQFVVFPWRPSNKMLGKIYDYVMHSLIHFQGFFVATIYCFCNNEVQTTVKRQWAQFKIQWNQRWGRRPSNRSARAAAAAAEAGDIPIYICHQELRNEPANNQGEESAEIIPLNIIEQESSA
The experiment is described as follows: ratio of IC50 on human calcitonin receptor to IC50 on human amylin receptor. Here is the method:
The resulting pellet was resuspended, homogenized and centrifuged (20.000 rpm, 15 min) in a buffer containing 20 mM Na-HEPES and 0.1 mM EDTA (pH 7.4, buffer 2). The resulting pellet was resuspended in buffer 2 and protein concentration was measured (BCA protein Assay, Pierce). The homogenate was kept cold during the whole procedure. The membranes were kept at −80° C. until use. The assay was performed in a 384 well Optiplate (PerkinElmer) in a total volume of 40 ul. Membranes were mixed with SPA beads. Final concentration of membranes 35 ng/μL final and SPA beads was 0.05 mg/well. Test-compounds were dissolved in DMSO and further diluted in assay buffer (50 mM Hepes, pH 7.4, 1 mM CaCl2, 5 mM MgCl₂, 0.1% OA and 0.02% Tween20). […] The final mixture was incubated with shaking at 400 rpm for 120 min at 25° C. prior to centrifugation (1500 rpm, 10 min). Samples were analyzed on TopCounter™ (Packard). The IC₅₀ was calculated using (one site binding competition analysis) GraphPad Prism5 as a measure of receptor affinity.
Membranes were prepared in the following way; the cells were rinsed with PBS and incubated with Versene for approximately 5 min before harvesting. The cells were flushed with PBS and the cell-suspension was centrifuged for 5 min at 1000 rpm. Cells were homogenized (Ultrathurrax) in a buffer containing 20 mM Na-HEPES and 10 mM EDTA (pH 7.4) and centrifuged at 20.000 rpm for 15 min. The resulting pellet was resuspended, homogenized and centrifuged (20.000 rpm, 15 min) in a buffer containing 20 mM Na-HEPES and 0.1 mM EDTA (pH 7.4, buffer 2). The resulting pellet was resuspended in buffer 2 and protein concentration was measured (BCA protein Assay, Pierce). The homogenate was kept cold during the whole procedure. The membranes were kept at −80° C. until use. Assay was performed in a 384 well Optiplate (PerkinElmer) in a total volume of 40 ul. Membranes were mixed with SPA beads.

The target of experiment [5] is T4, human amylin receptor (amylin 3(a) receptor: human calcitonin receptor plus RAMP-3) (human, UniProt P30988 25-474; O60896 24-148).
T4 sequence (looked up) 1: T3 sequence (looked up)
T4 sequence (looked up) 2: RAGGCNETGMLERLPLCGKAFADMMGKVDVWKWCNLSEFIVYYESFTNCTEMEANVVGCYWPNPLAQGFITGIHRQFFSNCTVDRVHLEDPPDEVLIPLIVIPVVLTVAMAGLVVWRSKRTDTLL
The experiment is described as follows: cell-based or functional assay.

Experiment [6] concerns the target T5, human calcitonin receptor (human, UniProt P30988 25-474).
T5 sequence (looked up): T3 sequence (looked up)
The experiment is described as follows: cell-based or functional assay.

In experiment [7] the target is T4, human amylin receptor (amylin 3(a) …). Briefly: SPA competition binding, displacement of 125I-rat amylin, membranes of BHK amylin 3(a)/CRE-luc cells. The procedure, abridged: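 SPA beads + BHK amylin 3(a)/CRE-luc membranes, 35 ng/μL final; buffer 50 mM Hepes pH 7.4, 1 mM CaCl2, 5 mM MgCl₂, 0.1% OA, 0.02% Tween20. 120 min, 25° C, shaken; scintillation count. IC₅₀ by one-site binding competition fit, taken as receptor affinity.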
A general note: In a radioligand displacement assay an active substance lowers the binding of a labelled ligand.

The target in experiment [8] is T6, rat calcitonin receptor (rat, UniProt P32214 25-516).
T6 construct: whole, on cells; Used as membranes prepared from the transfected cells; also called rCTR; rat calcitonin (a) receptor
T6 sequence (looked up): T1 sequence (looked up) 1
Briefly: SPA competition with 125I-calcitonin, membranes of BHK cells with rat calcitonin receptor (Assay VIII).

In experiment [9] the target is T7, rat amylin receptor (rat calcitonin receptor + rat RAMP 3) (rat, UniProt P32214 25-516; Q9JJ73 23-147).
T7 construct: whole, on cells; Used as membranes prepared from the transfected cells; also called rAmylin-R; rat amylin 3(a) receptor
T7 sequence (looked up) 1: T1 sequence (looked up) 1
T7 sequence (looked up) 2: T1 sequence (looked up) 2
The experiment is described as follows: SPA competition with 125I-rat amylin, membranes of BHK cells with rat calcitonin receptor + rat RAMP3 (Assay VI).

One may read the IC50 as the concentration needed to halve the response being measured.

In the case of K([γGlu-γGlu-C20 diacid])CNTATCATQRLAEFLRHSSPNFGAIPSSTNVGPETY-NH2 (disulfide 2-7 (inferred)), the results for the IC50 in [1] and in experiment [2] were 0.182 nM and 16.1 nM, respectively. For the same molecule, in experiment [3], the “Ratio rCT/rAmylin binding” value stood at 88.5. The “Ratio hCT/hAmylin binding” value in [4] amounted to 17.6.

B1: N^ε1-[2-[2-[2-[[2-[2-[2-[[(4S)-4-carboxy-4-(19-carboxynonadecanoylamino)butanoyl]amino]ethoxy]ethoxy]acetyl]amino]ethoxy]ethoxy]acetyl]-[Arg17,Pro21,Pro27,Arg34 … (peptide)
peptide: K([AEEA-AEEA-γGlu-C20 diacid])CNTATCATQRLANFLRHSSPNFGAIPSSTNVGRNTY-NH2
modifications: disulfide 2-7; N-terminus assumed
SMILES: CC[C@H](C)[C@H](NC(=O)[C@H](C)NC(=O)CNC(=O)[C@H](Cc1ccccc1)NC(=O)[C@H](CC(N)=O)NC(=O)[C@@H]1CCCN1C(=O)[C@H](CO)NC(=O)[C@H](CO)NC(=O)[C@H](Cc1c[nH]cn1)NC(=O)[C@H](CCCNC(=N)N)NC(=O)[C@H](CC(C)C)NC(=O)[C@H](Cc1ccccc1)NC(=O)[C@H](CC(N)=O)NC(=O)[C@H](C)NC(=O)[C@H](CC(C)C)NC(=O)[C@H](CCCNC(=N)N)NC(=O)[C@H](CCC(N)=O)NC(=O)[C@@H](NC(=O)[C@H](C)NC(=O)[C@@H]1CSSC[C@H](NC(=O)[C@@H](N)CCCCNC(=O)COCCOCCNC(=O)COCCOCCNC(=O)CC[C@H](NC(=O)CCCCCCCCCCCCCCCCCCC(=O)O)C(=O)O)C(=O)N[C@@H](CC(N)=O)C(=O)N[C@@H]([C@@H](C)O)C(=O)N[C@@H](C)C(=O)N[C@@H]([C@@H](C)O)C(=O)N1)[C@@H](C)O)C(=O)N1CCC[C@H]1C(=O)N[C@@H](CO)C(=O)N[C@@H](CO)C(=O)N[C@H](C(=O)N[C@@H](CC(N)=O)C(=O)N[C@H](C(=O)NCC(=O)N[C@@H](CCCNC(=N)N)C(=O)N[C@@H](CC(N)=O)C(=O)N[C@H](C(=O)N[C@@H](Cc1ccc(O)cc1)C(N)=O)[C@@H](C)O)C(C)C)[C@@H](C)O
notes: also called compound 95
For the molecule B1, the IC50 in experiment [1] was determined as 5.45 nM; in experiment [2], 388 nM. For the same molecule, the “Ratio rCT/rAmylin binding” value in experiment [3] came to 71.3. Besides, the “Ratio hCT/hAmylin binding” value in experiment [4] came out at 63.4.

B2: N^ε-[2-[2-[2-[[(4S)-4-carboxy-4-(19-carboxynonadecanoylamino)butanoyl]amino]ethoxy]ethoxy]acetyl]Lys[Arg1,Arg17,Pro21,Pro27,His35]-h-amylin (peptide)
peptide: K([AEEA-γGlu-C20 diacid])RCNTATCATQRLANFLRHSSPNFGAIPSSTNVGSHTY-NH2
modifications: disulfide 3-8; N-terminus assumed
SMILES: CC[C@H](C)[C@H](NC(=O)[C@H](C)NC(=O)CNC(=O)[C@H](Cc1ccccc1)NC(=O)[C@H](CC(N)=O)NC(=O)[C@@H]1CCCN1C(=O)[C@H](CO)NC(=O)[C@H](CO)NC(=O)[C@H](Cc1c[nH]cn1)NC(=O)[C@H](CCCNC(=N)N)NC(=O)[C@H](CC(C)C)NC(=O)[C@H](Cc1ccccc1)NC(=O)[C@H](CC(N)=O)NC(=O)[C@H](C)NC(=O)[C@H](CC(C)C)NC(=O)[C@H](CCCNC(=N)N)NC(=O)[C@H](CCC(N)=O)NC(=O)[C@@H](NC(=O)[C@H](C)NC(=O)[C@@H]1CSSC[C@H](NC(=O)[C@H](CCCNC(=N)N)NC(=O)[C@@H](N)CCCCNC(=O)COCCOCCNC(=O)CC[C@H](NC(=O)CCCCCCCCCCCCCCCCCCC(=O)O)C(=O)O)C(=O)N[C@@H](CC(N)=O)C(=O)N[C@@H]([C@@H](C)O)C(=O)N[C@@H](C)C(=O)N[C@@H]([C@@H](C)O)C(=O)N1)[C@@H](C)O)C(=O)N1CCC[C@H]1C(=O)N[C@@H](CO)C(=O)N[C@@H](CO)C(=O)N[C@H](C(=O)N[C@@H](CC(N)=O)C(=O)N[C@H](C(=O)NCC(=O)N[C@@H](CO)C(=O)N[C@@H](Cc1c[nH]cn1)C(=O)N[C@H](C(=O)N[C@@H](Cc1ccc(O)cc1)C(N)=O)[C@@H](C)O)C(C)C)[C@@H](C)O
notes: also called compound 45
As for B2, in experiment [5], the “Ratio hCT/hAmylin funct.” value came to 17 and the “hAmylin-R funct. EC50 (pM)” value stood at 594 pM. Moreover, the “hCTR funct. EC50 (pM)” value in experiment [6] is 10100 pM. In addition, the IC50 in [7] was 0.552 nM.

B3: N^ε1-[2-[2-[2-[[(4S)-4-carboxy-4-(19-carboxynonadecanoylamino)butanoyl]amino]ethoxy]ethoxy]acetyl]-[Arg17,Pro21,Pro27,Arg35]-h-amylin (peptide)
peptide: K([AEEA-γGlu-C20 diacid])CNTATCATQRLANFLRHSSPNFGAIPSSTNVGSRTY-NH2
modifications: disulfide 2-7; N-terminus assumed
SMILES: CC[C@H](C)[C@H](NC(=O)[C@H](C)NC(=O)CNC(=O)[C@H](Cc1ccccc1)NC(=O)[C@H](CC(N)=O)NC(=O)[C@@H]1CCCN1C(=O)[C@H](CO)NC(=O)[C@H](CO)NC(=O)[C@H](Cc1c[nH]cn1)NC(=O)[C@H](CCCNC(=N)N)NC(=O)[C@H](CC(C)C)NC(=O)[C@H](Cc1ccccc1)NC(=O)[C@H](CC(N)=O)NC(=O)[C@H](C)NC(=O)[C@H](CC(C)C)NC(=O)[C@H](CCCNC(=N)N)NC(=O)[C@H](CCC(N)=O)NC(=O)[C@@H](NC(=O)[C@H](C)NC(=O)[C@@H]1CSSC[C@H](NC(=O)[C@@H](N)CCCCNC(=O)COCCOCCNC(=O)CC[C@H](NC(=O)CCCCCCCCCCCCCCCCCCC(=O)O)C(=O)O)C(=O)N[C@@H](CC(N)=O)C(=O)N[C@@H]([C@@H](C)O)C(=O)N[C@@H](C)C(=O)N[C@@H]([C@@H](C)O)C(=O)N1)[C@@H](C)O)C(=O)N1CCC[C@H]1C(=O)N[C@@H](CO)C(=O)N[C@@H](CO)C(=O)N[C@H](C(=O)N[C@@H](CC(N)=O)C(=O)N[C@H](C(=O)NCC(=O)N[C@@H](CO)C(=O)N[C@@H](CCCNC(=N)N)C(=O)N[C@H](C(=O)N[C@@H](Cc1ccc(O)cc1)C(N)=O)[C@@H](C)O)C(C)C)[C@@H](C)O
notes: Derivative of human amylin; also called compound 38
Consider B3, for which the 50% inhibitory concentration (IC50) stood at 38 nM in experiment [8] and 0.383 nM in [9].
